Measurements as given in patent US20250109204A1 (LAVA THERAPEUTICS N V, published 2025).
Positions count from the first letter of the chain named. Names may count otherwise. Each block holds one molecule with its values, some of them ahead of it.

What was measured:
[1] = biological target: Human Vγ9Vδ2 T cell receptor on primary Vγ9Vδ2 T cells (human) (UniProt Q99603); assay: cell-based or functional assay
[2] = biological target: Epidermal growth factor receptor (EGFR) on tumor cell lines A-431, HCT-116 and HT-29 (human) (UniProt P00533); assay: cell-based or functional assay
[3] = biological target: Human Vγ9Vδ2 T cell receptor on primary Vγ9Vδ2 T cells (human), Q99603; assay: cell-based or functional assay
[4] = biological target: T1, Epidermal growth factor receptor (EGFR) on tumor cell lines A-431, HCT-116 and HT-29 (human, UniProt P00533 25-1210); assay: cell-based or functional assay
[5] = biological target: T1, Epidermal growth factor receptor (EGFR) …; assay: cell-based ELISA on HT29 cells, anti-IgG1-HRP, signal at 450 nm; EC50 table gives no unit, x axis is in nM
Experimental: (§1) To this end, tumor cells were first seeded at different concentrations on day-1 to reach a concentration of approximately 50000 cells/well on day 0. […] Bound antibodies were then labelled in a secondary incubation step with anti-IgG1-HRP for one hour at 37° C. The secondary antibody binding was then resolved by the addition of 3,3′,5,5′-Tetramethylbenzidine and the colorimetric change induced by the HRP, followed by the addition of H2SO4 to stop the reaction. The optical density (OD) was then measured in a UV spectrometer at a wavelength of 450 nm.

[6] = biological target: Human Vγ9Vδ2 T cell receptor on primary Vγ9Vδ2 T cells (human) (UniProt Q99603); assay: flow cytometry on expanded primary Vγ9Vδ2 T cells of donor D336 (panel 'Binding to D336 P3'), anti-IgG1 secondary, MFI (geometric mean); EC50 table beside the curve gives no unit, x axis is in nM
[7] = biological target: Human Vγ9Vδ2 T cell receptor on primary Vγ9Vδ2 T cells (human) (UniProt Q99603); assay: flow cytometry on expanded primary Vγ9Vδ2 T cells of donor D339 (panel 'Binding to D339 P2'), anti-IgG1 secondary, MFI (geometric mean); EC50 table beside the curve gives no unit, x axis is in nM
[8] = biological target: Human Vγ9Vδ2 T cell receptor on primary Vγ9Vδ2 T cells (human) (UniProt Q99603); assay: flow cytometry on expanded primary human Vγ9Vδ2 T cells (two donors), labelled anti-IgG1 secondary antibody
[9] = biological target: T1, Epidermal growth factor receptor (EGFR) …; assay: cell-based ELISA on A-431 cells, anti-IgG1-HRP, signal at 450 nm; EC50 table gives no unit, x axis is in nM; the table is identical to that of Fig. 10C and does not fit the drawn curve
Experimental: as §1

[10] = biological target: T1, Epidermal growth factor receptor (EGFR) …; assay: cell-based ELISA on EGFR-expressing A-431, HCT-116 and HT-29 cells, anti-IgG1-HRP, OD 450 nm; one EC50 given for all three cell lines A-431, HCT-116 and HT-29; 37° C
Experimental: as §1

[11] = biological target: T1, Epidermal growth factor receptor (EGFR) …; assay: cell-based ELISA on HCT-116 cells, anti-IgG1-HRP, signal at 450 nm; EC50 table gives no unit, x axis is in nM
Experimental: as §1

[12] = biological target: T1, Epidermal growth factor receptor (EGFR) …; assay: cell-based ELISA on A-431 cells, anti-IgG1-HRP, signal at 450 nm
Experimental: as §1

[13] = biological target: Recombinant human Vγ9Vδ2-Fc fusion protein (human) (UniProt Q99603); assay: BLI (Octet RED96), Vγ9Vδ2-Fc captured on anti-human Fc biosensors, VHH as analyte, 1:1 global fit, mean of at least three measurements +/- SD

EC50 degranulation (pM) [1]: 10 pM
Molecule: bispecific VHH 7D12-5C8 (non-humanized) (bispecific antibody)
EC50 cytotoxicity (pM) [2]: 9 pM

EC50 degranulation (pM) [3]: 11 pM
B1: bispecific VHH 7D12var8-5C8var1-Y105F (bispecific antibody)
chain: EVQLVESGGGSVQPGGSLRLSCAASGRTSRSYGMGWFRQAPGKEREFVSGISWRGDSTGYADSVKGRFTISRDNAKNTVDLQMNSLRAEDTAVYYCAAAAGSAWYGTLYEYDYWGQGTLVTVSSGGGGSEVQLLESGGGSVQPGGSLRLSCAASGRPFSNYAMSWFRQAPGKEREFVSAISWSGGSTSYADSVKGRFTISRDNSKNTLYLQMNSLRAEDTAVYYCAAQFSGADFGFGRLGIRGYEYDYWGQGTQVTVSS
EC50 cytotoxicity (pM) [4]: 2.5 pM

EC50 [5]: 6.45 nM
EC50 [6]: 3.11 nM
EC50 [7]: 3.99 nM
EC50 [8]: 3 nM
EC50 [9]: 7.29 nM
EC50 for Vγ9Vδ2 T cell degranulation (CD107a) [1]: 0.04 to 0.09 nM
EC50 [10]: ~7 nM
EC50 [11]: 7.29 nM
EC50 (read off the curve) [12]: ~1 nM
B2: 7D12var8-5C8var1 (Y105F)-Fc (bispecific antibody, V domains shown)
V domain 1: EVQLVESGGGSVQPGGSLRLSCAASGRTSRSYGMGWFRQAPGKEREFVSGISWRGDSTGYADSVKGRFTISRDNAKNTVDLQMNSLRAEDTAVYYCAAAAGSAWYGTLYEYDYWGQGTLVTVSS
V domain 2: EVQLLESGGGSVQPGGSLRLSCAASGRPFSNYAMSWFRQAPGKEREFVSAISWSGGSTSYADSVKGRFTISRDNSKNTLYLQMNSLRAEDTAVYYCAAQFSGADFGFGRLGIRGYEYDYWGQGTQVTVSS
notes: Heterodimer of two VHH-Fc chains: 7D12var8-Fc (hole) and 5C8var1(Y105F)-Fc (knob); Human IgG1 Fc with L234F and L235E; In both entries the last residue X3 is K or absent; copies: 1 + 1

Kd [13]: 0.78 nM
B3: VHH 5C8var1-Y105F (VHH)
VHH: B2 V domain 2

Kd [13]: 1.59 nM
B4: VHH 5C8var1-Y105S (VHH)
VHH: B2 V domain 2 with F105S

Kd [13]: 0.81 nM
B5: VHH 5C8var1 (VHH)
VHH: B2 V domain 2 with F105Y
modifications: Y105 partly sulfated (shown for 5C8 and for 1D12var5-5C8var1; 5C8var1 gave two HP-SEC peaks)
